{
  "source": "paper PMC12708652",
  "about": "(Nature Communications, 2025)",
  "binders": {"B1": {"name": "monoclonal antibody (mAb) 3G9 against P116 (antibody, V domains shown)", "VH": "QVQLQQPGAELVKPGASVKLSCKASGYSFITYWMRWVRQRPGQGLEWIGQINPSNGHTNYDEKFKDRATLTVDKSSTTAYLQLSSLTSDDSAVYFCARSWEAMDYWGQGTSVTVSS", "VL": "DIVLTQSPATLSVTPGDSVSLSCRASQGISNNLHWYQQKSHESPRLLIKYASQSFSGIPSRFSGSGSGTVFTLTINSVETEDFGVYFCQQSYSWPIFTFGSGTNLQIK"}},
  "target": "P116 (residues 30–957), recombinant ectodomain of Mycoplasma pneumoniae P116 (Mycoplasma pneumoniae, UniProt P75556)",
  "sequence (P75556 30-957)": "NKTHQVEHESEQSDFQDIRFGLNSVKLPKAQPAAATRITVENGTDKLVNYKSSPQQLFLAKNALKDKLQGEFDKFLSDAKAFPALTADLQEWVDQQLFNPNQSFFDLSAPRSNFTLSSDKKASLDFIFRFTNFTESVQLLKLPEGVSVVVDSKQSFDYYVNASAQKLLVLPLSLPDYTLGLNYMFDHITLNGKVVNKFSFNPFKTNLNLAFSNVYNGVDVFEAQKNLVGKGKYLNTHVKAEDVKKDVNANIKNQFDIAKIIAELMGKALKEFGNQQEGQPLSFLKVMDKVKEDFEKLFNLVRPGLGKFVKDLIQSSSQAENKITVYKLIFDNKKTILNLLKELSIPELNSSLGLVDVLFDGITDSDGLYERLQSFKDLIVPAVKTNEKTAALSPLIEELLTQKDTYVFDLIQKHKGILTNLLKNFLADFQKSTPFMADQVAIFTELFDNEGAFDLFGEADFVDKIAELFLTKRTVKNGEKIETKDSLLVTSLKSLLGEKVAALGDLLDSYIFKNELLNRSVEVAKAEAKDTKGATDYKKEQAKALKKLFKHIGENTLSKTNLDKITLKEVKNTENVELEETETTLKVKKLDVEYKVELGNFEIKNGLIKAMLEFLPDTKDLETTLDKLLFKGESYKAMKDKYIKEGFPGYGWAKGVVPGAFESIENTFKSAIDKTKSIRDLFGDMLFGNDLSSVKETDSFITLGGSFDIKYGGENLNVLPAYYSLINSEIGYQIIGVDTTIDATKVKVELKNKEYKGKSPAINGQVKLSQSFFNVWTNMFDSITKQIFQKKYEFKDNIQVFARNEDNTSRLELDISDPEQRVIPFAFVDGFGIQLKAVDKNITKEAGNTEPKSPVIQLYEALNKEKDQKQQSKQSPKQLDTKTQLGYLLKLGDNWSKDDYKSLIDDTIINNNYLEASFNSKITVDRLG",
  "assay": "cryo-EM structure",
  "data": [
    {"binder": "B1", "values": [
      {"measurement": "binding result", "result": "binds"}
    ]}
  ]
}
